Test results as given in patent publication US20020143164A1, “Ras activator nucleic acid molecules, polypeptides and methods of use” (priority 1999, published 2002).

What was measured:
[1] = tested on: Ras; experiment: Ras activation assay in living cells, GRF4 and deletion mutants expressed in HEK-293T cells; type: cell-based, human; details: HEK-293T cells, no cNMP stimulation
Protocol: HEK-293T cells were transfected with vector alone, GRF4 (WT), GRF4 lacking its cNMP-BD (ΔcNMP-BD) or its CDC25 domain (ΔCDC25), and then treated (or not) with 8-Br-cAMP. Cell lysates were then incubated with GST-Raf1-RBD to precipitate active Ras, and immunobloited with anti Ras antibodies as above (upper panel). Lower panels are controls for total endogenous Ras and transfected GRF4 or its mutants.
Flag, HA or myc tags was added to the N-terminus of full length GRF4 using PCR, and subcloned into the mammalian expression vector pCMV5 (Invitrogen). Mutants GRF4 with deletion of the CDC25 domain (residue 711-1007, GRF4DCDC25 or DCDC25 for short), the cNMP-BD (residue 134-254, DcNMP-BD), the PLPF motif in the PDZ domain (residue 396-399, -PLPF), or bearing mutations in the PDZ-binding motif (SAV to AAA), were generated using PCR. The GST-GRF4-cNMP-BD (residue 101-303) and GST-Carboxy-terminus (residue 1348-1499) were PCR-generated and cloned into pGEX-2T ( Pharmacia). The latter construct was used to generate a fusion protein (GST-GRF4C terminus) which was used to immunize rabbits for the generation of polyclonal anti GRF4 antibodies.
HEK-293T cells were transfected as above, serum starved overnight and then subjected to various treatments, as described in the text. […] GTP in the lysates was determined using activation specific probes as described. Briefly, to determined the levels of active Ras (Ras-GTP) in cell, sepharose-bound GST fusion protein of the Ras-binding domain (RBD) of Raf-1 (GST-Raf1-RBD; Upstate Biotechnology Inc.) was used to precipitate Ras-GTP from cell lysates, and the amount of Ras-GTP determined by immunoblotting with anti Ras antibodies (Quality Biotech). Similarly, to determine the level of Rap1-GTP in cell lysates, sepharose-bound GST fusion proteins of the Rap1-binding domain of RaIGDS (GST-RaIGDS-RBD) were used to precipitate Rap1-GTP, which was then detected on a Western blot using anti-Rap1 antibodies (Transduction Lab).

[2] = target: T1, GRF4-cNMP-BD (Homo sapiens, UniProt Q9Y4G8); experiment: cAMP-agarose binding assay; details: cAMP agarose beads, anti GRF4 immunoblot
T1 construct: The GST-GRF4-cNMP-BD (residue 101-303); made in house
T1 sequence (Q9Y4G8 101-303): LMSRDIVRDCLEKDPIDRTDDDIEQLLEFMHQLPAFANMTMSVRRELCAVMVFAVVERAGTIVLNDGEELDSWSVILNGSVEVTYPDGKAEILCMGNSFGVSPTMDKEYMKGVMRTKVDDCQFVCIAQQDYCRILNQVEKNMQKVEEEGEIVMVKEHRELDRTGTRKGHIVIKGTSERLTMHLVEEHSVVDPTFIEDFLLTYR
Protocol: Right and left panels in (b) represent two separate experiments.
Following extensive washes in HNTG (20 mM Hepes, pH 7.5, 150 mM NaCl, 0.1% Triton ×100, 10% Glycerol) proteins were eluted off beads with sample buffer, separated on SDS-PAGE and immunoblotted with either anti GST antibodies for the in vitro binding experiments, or with anti GRF4 antibodies for the pull down experiments.

[3] = tested on: Rap1; experiment: Rap1 activation assay in living cells (GST-RalGDS-RBD pull-down); type: cell-based, human; details: HEK-293T cells, via CDC25 domain
Protocol: HEK-293T cells were transfected as above, serum starved overnight and then subjected to various treatments, as described in the text. Cells were lysed with lysis buffer (25 mM Hepes, pH 7.5, 150 mM NaCl, 1% NP-40, 0.25% Na deoxycholate, 10% glycerol, 25 mM NaF, 10 mM MgCl2, 1 mM EDTA, 1 mM NaVO4, […]) and the level of Ras.GTP or Rap. GTP in the lysates was determined using activation specific probes as described. Briefly, to determined the levels of active Ras (Ras-GTP) in cell, sepharose-bound GST fusion protein of the Ras-binding domain (RBD) of Raf-1 (GST-Raf1-RBD; Upstate Biotechnology Inc.) was used to precipitate Ras-GTP from cell lysates, and the amount of Ras-GTP determined by immunoblotting with anti Ras antibodies (Quality Biotech). Similarly, to determine the level of Rap1-GTP in cell lysates, sepharose-bound GST fusion proteins of the Rap1-binding domain of RaIGDS (GST-RaIGDS-RBD) were used to precipitate Rap1-GTP, which was then detected on a Western blot using anti-Rap1 antibodies (Transduction Lab).

[4] = tested on: Ras; experiment: In vitro pull-down of GRF4 with GST-Ras of different nucleotide-bound states; type: binding; details: lysates of 293T cells with Flag-tagged GRF4, GST-Ras beads
Description: Beads were washed and resolved on SDS-PAGE and subsequently immunoblofted with anti-Flag antibodies to detect Flag-tagged GRF4. […] However, it bound to Ras differentially, depending on the nucleotide-bound states of Ras.

[5] = tested on: Ras; experiment: In vitro GEF assay (32P-α-GTP binding to Ras); type: biochemical
Protocol: Full length (GRF4) or CDC25-deleted (ΔCDC25) GRF4, or GRF2, each Flag-tagged, were immunoprecipitated from transfected Hek-293T cells using anti Flag antibodies. Equal amounts of immunoprecipitates were washed with GEF lysis buffer, equilibrated with GEF assay buffer and incubated with 32P-α-GTP (diluted in cold GTP) plus 100 ng of Ras for 30 min. Bound and unbound radiolabelled GTP were then separated by filtration, and the amount of bound GTP determined by scintillation counting, as detailed in the Method section. Fold Ras activation was compared to the activation of Ras in the absence of GRFs (which was set to 1).
GRF4 has a RasGRF(GEF) activity/function. To show its GEF activity, we performed in-vitro GEF assays. Briefly, GST-Ras was added alone (tubes 1 and 2) or along with GST-CDC25, or immunoprecipitated full-length of GRF4 (tubes 3 and 4). All tubes contained assay mixture including cold GTP and P32 alpha GTP. The exchange reactions were stopped at the indicated times. The stopped reaction mixtures were passed through nitrocellulose filters which were then washed with stop buffer to separate bound and unbound nucleotides. Filters were dried and then quantified by scintillation counting to determine bound CPM. The labeled nucleotides trapped on the washed filters were assumed to be Ras-associated. The difference in bound CPM over 30 minute period was determined for reactions where GST-Ras was added alone (it is the difference in bound CPM between tubes 1 and 2) and where GST-Ras was added with a GEF (it is the difference in bound CPM between tubes 3 and 4).

[6] = tested on: Rat 2 fibroblasts; experiment: Transformation assay (foci formation); type: cell-based; details: transient transfection, cultured three weeks
Protocol: Transformation assays were performed using Rat 2 fibroblasts, a suitable cell type for this assay. Rat 2 cells were transiently transfected with empty vector, GRF4 construct, or mutant RasV12 construct (a transforming form of Ras used as a positive control). After transfection, cells were cultured over a period of three weeks with routine changes of media, and were routinely examined for morphology changes under a light microscope.

B1: GRF4: Ras guanine nucleotide exchange factor polypeptide, SEQ ID NO: 2, 1499 amino acids (protein, listed as Homo sapiens)
chain: MKPLAIPANHGVMGQQEKHSLPADFTKLHLTDSLHPQVTHVSSSHSGCSITSDSGSSSLSDIYQATESEAGDMDLSGLPETAVDSEDDDDEEDIERASDPLMSRDIVRDCLEKDPIDRTDDDIEQLLEFMHQLPAFANMTMSVRRELCAVMVFAVVERAGTIVLNDGEELDSWSVILNGSVEVTYPDGKAEILCMGNSFGVSPTMDKEYMKGVMRTKVDDCQFVCIAQQDYCRILNQVEKNMQKVEEEGEIVMVKEHRELDRTGTRKGHIVIKGTSERLTMHLVEEHSVVDPTFIEDFLLTYRTFLSSPMEVGKKLLEWFNDPSLRDKVTRVVLLWVNNHFNDFEGDPAMTRFLEEFENNLEREKMGGHLRLLNIACAAKAKRRLMTLTKPSREAPLPFILLGGSEKGFGIFVDSVDSGSKATEAGLKRGDQILEVNGQNFENIQLSKAMEILRNNTHLSITVKTNLFVFKELLTRLSEEKRNGAPHLPKIGDIKKASRYSIPDLAVDVEQVIGLEKVNKKSKANTVGGRNKLKKILDKTRISILPQKPYNDIGIGQSQDDSIVGLRQTKHIPTALPVSGTLSSSNPDLLQSHHRILDFSATPDLPDQVLRVFKADQQSRYIMISKDTTAKEVVIQAIREFAVTATPDQYSLCEVSVTPEGVIKQRRLPDQLSKLADRIQLSGRYYLKNNMETETLCSDEDAQELLRESQISLLQLSTVEVATQLSMRNFELFRNIEPTEYIDDLFKLRSKTSCANLKRFEEVINQETFWVASEILRETNQLKRMKIIKHFIKIALHCRECKNFNSMFAIISGLNLAPVARLRTTWEKLPNKYEKLFQDLQDLFDPSRNMAKYRNVLNSQNLQPPIIPLFPVIKKDLTFLHEGNDSKVDGLVNFEKLRMIAKEIRHVGRMASVNMDPALMFRTRKKKWRSLGSLSQGSTNATVLDVAQTGGHKKRVRRSSFLNAKKLYEDAQMARKVKQYLSNLELEMDEESLQTLSLQCEPATNTLPKNPGDKKPVKSETSPVAPRAGSQQKAQSLPQPQQQPPPAHKINQGLQVPAVSLYPSRKKVPVKDLPPFGINSPQALKKILSLSEEGSLERHKKQAEDTISNASSQLSSPPTSPQSSPRKGYTLAPSGTVDNFSDSGHSEISSRSSIVSNSSFDSVPVSLHDERRQRHSVSIVETNLGMGRMERRTMIEPDQYSLGSYAPMSEGRGLYATATVISSPSTEELSQDQGDRASLDAADSGRGSWTSCSSGSHDNIQTIQHQRSWETLPFGHTHFDYSGDPAGLWASSSHMDQIMFSDHSTKYNRQNQSRESLEQAQSRASWASSTGYWGEDSEGDTGTIKRRGGKDVSIEAESSSLTSVTTEETKPVPMPAHIAVASSTTKGLIARKEGRYREPPPTPPGYIGIPITDFPEGHSHPARKPPDYNVALQRSRMVARSSDTAGPSSVQQPHGHPTSSRPVNKPQWHKPNESDPRLAPYQSQGFSTEEDEDEQVSAV
Activation of endogenous Ras by heterologous expression [1]: weak activation | Precipitation by immobilized cAMP from lysates of expressing HEK-293T cells [2]: able to precipitate | Activation of Rap1 in cells [3]: mediates activation of Rap1 | Binding to EDTA-treated Ras (nucleotide-free) [4]: bound strongly | Binding to Ras-GDP [4]: bound weakly | Binding to Ras-GTP [4]: bound strongly | In vitro GEF activity on Ras [5]: active on Ras | Fold Ras activation in vitro (activation without GRFs set to 1) ([5]; immunoprecipitated Flag-tagged protein, 100 ng Ras, 30 min): ~2.9 fold | Foci formation / transformed phenotype of transfected cells [6]: induced foci formation
